Positions count from the first letter of the chain named.

Assay in all cases: SPR, KD relative to WT C2;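 also: biacore SPR at 37 °C, anti-C2 mAbs captured via immobilised goat anti-human IgG, C2 alanine or serine surface mutants as analytes, 1:1 model fitted, double-referenced sensograms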
For one assay, the target named is T1, human C2 G677A (human, UniProt P06681 21-752).
T1 sequence: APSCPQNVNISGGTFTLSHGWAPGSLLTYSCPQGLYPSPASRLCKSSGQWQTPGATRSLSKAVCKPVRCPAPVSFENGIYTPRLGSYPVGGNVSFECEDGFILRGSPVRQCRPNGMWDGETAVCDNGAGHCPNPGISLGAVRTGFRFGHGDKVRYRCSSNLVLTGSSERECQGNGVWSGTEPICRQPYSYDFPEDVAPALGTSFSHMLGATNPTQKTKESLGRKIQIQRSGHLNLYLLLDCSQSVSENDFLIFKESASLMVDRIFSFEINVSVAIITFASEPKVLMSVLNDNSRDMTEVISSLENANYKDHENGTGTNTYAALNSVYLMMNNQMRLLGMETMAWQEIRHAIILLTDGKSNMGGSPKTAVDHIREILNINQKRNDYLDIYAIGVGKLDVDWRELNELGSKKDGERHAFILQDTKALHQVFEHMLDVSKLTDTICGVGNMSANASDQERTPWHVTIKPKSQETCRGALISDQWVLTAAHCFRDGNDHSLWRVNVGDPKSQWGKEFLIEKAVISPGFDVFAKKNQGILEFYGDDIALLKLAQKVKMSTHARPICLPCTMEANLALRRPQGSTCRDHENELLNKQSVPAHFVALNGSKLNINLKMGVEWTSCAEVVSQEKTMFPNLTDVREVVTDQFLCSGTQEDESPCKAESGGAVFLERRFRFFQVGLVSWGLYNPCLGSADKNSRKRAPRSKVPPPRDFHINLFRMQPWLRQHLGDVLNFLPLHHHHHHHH

The target of a further assay is T2, human C2 P724A (human, UniProt P06681 21-752).
T2 sequence: T1 sequence with A657G, P704A

A further assay addresses T3, human C2 I320A (human, UniProt P06681 21-752).
T3 sequence: T1 sequence with I300A, A657G

The next assay has as its target T4, human C2 P650A (human, UniProt P06681 21-752).
T4 sequence: T1 sequence with P630A, A657G

B1: RF16-226 (antibody, human IgG4 S228P, lambda)
heavy: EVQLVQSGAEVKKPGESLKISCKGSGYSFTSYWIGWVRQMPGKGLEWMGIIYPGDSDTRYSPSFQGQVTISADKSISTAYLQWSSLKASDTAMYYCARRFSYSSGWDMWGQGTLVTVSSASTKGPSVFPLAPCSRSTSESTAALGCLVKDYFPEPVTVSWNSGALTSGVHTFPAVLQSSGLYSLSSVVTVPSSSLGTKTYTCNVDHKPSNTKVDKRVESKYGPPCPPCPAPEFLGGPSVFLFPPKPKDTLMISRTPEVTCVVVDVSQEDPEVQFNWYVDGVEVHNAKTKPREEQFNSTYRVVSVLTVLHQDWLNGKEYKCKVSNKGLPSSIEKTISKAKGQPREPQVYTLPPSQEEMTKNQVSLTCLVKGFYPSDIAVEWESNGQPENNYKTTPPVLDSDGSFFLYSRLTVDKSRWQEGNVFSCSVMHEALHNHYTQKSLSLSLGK
light: SYELTQPPSVSVSPGQTARITCSGDALTSKYVAWYQQKSGLAPLLVIYEDTRRPSGIPAKFSGSSSGSVATLTISGAHGDDEADYYCYSTDASGHQRVFGGGTKLTVLSQPKAAPSVTLFPPSSEELQANKATLVCLISDFYPGAVTVAWKADGSPVKAGVETTKPSKQSNNKYAASSYLSLTPEQWKSHRSYSCQVTHEGSTVEKTVAPTECS
notes: pH-dependent anti-C2 antibody from a phage display library; also called WT
Turning to B1, the Fold diff came out at 1 fold with human C2 G677A, 40 fold with human C2 P724A, 12 fold with human C2 I320A and 2 fold with human C2 P650A.

Values taken from patent publication US20220332804A1 (CSL INNOVATION, published 2022).
